From the supplement of paper PMC5998384 come the findings set out here.

In series [1] the test system is HeLa Kyoto. As to the kind of experiment: solubility change mitosis vs G1/S (difference of NP-40 vs SDS log2 ratios) (log2 ratio difference); higher = more soluble in mitosis.
Series [2] deals with HeLa Kyoto. Briefly: solubility in G1/S (NP-40 vs SDS abundance) (log2 ratio); higher = more soluble. As to conditions: cell cycle stage: G1/S.
Series [3] deals with HeLa Kyoto. Briefly: melting temperature (median over replicates), in situ; higher = more thermally stable.
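For melting temperature (median over replicates), in situ in this document: HeLa Kyoto cells synchronized by double thymidine or nocodazole block, proteins quantified by TMT10plex mass spectrometry, three independent biological replicates.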
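For solubility change mitosis vs G1/S (difference of NP-40 vs SDS log2 ratios) in this document: synchronized HeLa Kyoto cells (double thymidine block for G1/S, nocodazole release for mitosis), protein amounts in NP-40 versus SDS lysates quantified by mass spectrometry, three biological replicates.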
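For solubility in G1/S (NP-40 vs SDS abundance) in this document: HeLa Kyoto cells arrested at G1/S by double thymidine block, proteins quantified by TMT10plex mass spectrometry in mild NP-40 versus SDS extracts, three biological replicates.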

Regarding “MGDDQEDDFPRRLSESMEDLSLDLGALQGSEYLQDLGLGAPSHSQPGETPDSRPTGEEPGRDSLFSSLAGSQDLSRRRSWERSRSCSESWRRLSLDASAVDEEPCLPRTLASLALNLPGGGLKTWTQGCLSGGGTPAESPGKECDSPKKRGRSRSVPVSFYEIRSPEISPGLEVPTPPVQGLEPPVLECMEKDHVEPDHVLIVQQVLQELRQYHGARQRACMSASPGGAHSNLTWFEFLSESEDGAGKNEKSDKSTSVKRRLSCLRSRVTRQKEKGKSPAHLKDKGQDARERRECVNGHQLLQGTFSGPSSCPLCGKPFLSSASLKEHPRGTLLSDGSPALSRNVGMTVSQKGGPQPTPSPAGPGTQLGPITGEMDEADSAFLKFKQTADDSLSLTSPNTESIFVEDPYTASLRSEIESDGHEFEAESWSLAVDAAYAKKQKREVVKRQDVLYELMQTEVHHVRTLKIMLKVYSRALQEELQFSSKAIGRLFPCADDLLETHSHFLARLKERRQESLEEGSDRNYVIQKIGDLLVQQFSGENGERMKEKYGVFCSGHNEAVSHYKLLLQQNKKFQNLIKKIGNFSIVRRLGVQECILLVTQRITKYPVLVERIIQNTEAGTEDYEDLTQALNLIKDIISQVDAKVSECEKGQRLREIAGKMDLKSSSKLKNGLTFRKEDMLQRQLHLEGMLCWKTTSGRLKDILAILLTDVLLLLQEKDQKYVFASVDSKPPVISLQKLIVREVANEEKAMFLISASLQGPEMYEIYTSSKEDRNAWMAHIQRAVESCPDEEEGPFSLPEEERKVVEARATRLRDFQERLSMKDQLIAQSLLEKQQIYLEMAEMGGLEDLPQPRGLFRGGDPSETLQGELILKSAMSEIEGIQSLICRQLGSANGQAEDGGSSTGPPRRAETFAGYDCTNSPTKNGSFKKKVSSTDPRPRDWRGPPNSPDLKLSDSDIPGSSEESPQVVEAPGTESDPRLPTVLESELVQRIQTLSQLLLNLQAVIAHQDSYVETQRAAIQEREKQFRLQSTRGNLLLEQERQRNFEKQREERAALEKLQSQLRHEQQRWERERQWQHQELERAGARLQEREGEARQLRERLEQERAELERQRQAYQHDLERLREAQRAVERERERLELLRRLKKQNTAPGALPPDTLAEAQPPSHPPSFNGEGLEGPRVSMLPSGVGPEYAERPEVARRDSAPTENRLAKSDVPIQLLSATNQFQRQAAVQQQIPTKLAASTKGGKDKGGKSRGSQRWESSASFDLKQQLLLNKLMGKDESTSRNRRSLSPILPGRHSPAPPPDPGFPAPSPPPADSPSEGFSLKAGGTALLPGPPAPSPLPATPLSAKEDASKEDVIFF [ARHGEF18]”, the “solubility change mitosis (log2)” value in series [1] was -0.0175. Also, in series [2], the “solubility in G1/S (log2)” value came out at 0.0647. For the same sequence, the melting temperature in series [3] (cell cycle stage: G1/S) stood at 51.9 °C; in series [3] (cell cycle stage: mitosis) it was 51.1 °C.
Turning to “MGEDAAQAEKFQHPGSDMRQEKPSSPSPMPSSTPSPSLNLGNTEEAIRDNSQVNAVTVLTLLDKLVNMLDAVQENQHKMEQRQISLEGSVKGIQNDLTKLSKYQASTSNTVSKLLEKSRKVSAHTRAVKERMDRQCAQVKRLENNHAQLLRRNHFKVLIFQEENEIPASVFVKQPVSGAVEGKEELPDENKSLEETLHTVDLSSDDDLPHDEEALEDSAEEKVEESRAEKIKRSSLKKVDSLKKAFSRQNIEKKMNKLGTKIVSVERREKIKKSLTSNHQKISSGKSSPFKVSPLTFGRKKVREGESHAENETKSEDLPSSEQMPNDQEEESFAEGHSEASLASALVEGEIAEEAAEKATSRGSNSGMDSNIDLTIVEDEEEESVALEQAQKVRYEGSYALTSEEAERSDGDPVQPAVLQVHQTS [SDPR]”, the “solubility change mitosis (log2)” value in series [1] turned out to be 0.043. The “solubility in G1/S (log2)” value in series [2] is -0.0681. For the same sequence, the melting temperature in series [3] (cell cycle stage: G1/S) came out at 53.9 °C; in series [3] (cell cycle stage: mitosis), 53.4 °C.
Consider “MGEFKVHRVRFFNYVPSGIRCVAYNNQSNRLAVSRTDGTVEIYNLSANYFQEKFFPGHESRATEALCWAEGQRLFSAGLNGEIMEYDLQALNIKYAMDAFGGPIWSMAASPSGSQLLVGCEDGSVKLFQITPDKIQFERNFDRQKSRILSLSWHPSGTHIAAGSIDYISVFDVKSGSAVHKMIVDRQYMGVSKRKCIVWGVAFLSDGTIISVDSAGKVQFWDSATGTLVKSHLIANADVQSIAVADQEDSFVVGTAEGTVFHFQLVPVTSNSSEKQWVRTKPFQHHTHDVRTVAHSPTALISGGTDTHLVFRPLMEKVEVKNYDAALRKITFPHRCLISCSKKRQLLLFQFAHHLELWRLGSTVATGKNGDTLPLSKNADHLLHLKTKGPENIICSCISPCGSWIAYSTVSRFFLYRLNYEHDNISLKRVSKMPAFLRSALQILFSEDSTKLFVASNQGALHIVQLSGGSFKHLHAFQPQSGTVEAMCLLAVSPDGNWLAASGTSAGVHVYNVKQLKLHCTVPAYNFPVTAMAIAPNTNNLVIAHSDQQVFEYSIPDKQYTDWSRTVQKQGFHHLWLQRDTPITHISFHPKRPMHILLHDAYMFCIIDKSLPLPNDKTLLYNPFPPTNESDVIRRRTAHAFKISKIYKPLLFMDLLDERTLVAVERPLDDIIAQLPPPIKKKKFGT [CIRH1A]”, for which, in series [1], the “solubility change mitosis (log2)” value came to 0.349. Also, the “solubility in G1/S (log2)” value in series [2] was -1.13. The results for the melting temperature in series [3] (cell cycle stage: G1/S) and in series [3] (cell cycle stage: mitosis) were 54.3 °C and 52.3 °C, respectively.
Consider “MGLCKCPKRKVTNLFCFEHRVNVCEHCLVANHAKCIVQSYLQWLQDSDYNPNCRLCNIPLASRETTRLVCYDLFHWACLNERAAQLPRNTAPAGYQCPSCNGPIFPPTNLAGPVASALREKLATVNWARAGLGLPLIDEVVSPEPEPLNTSDFSDWSSFNASSTPGPEEVDSASAAPAFYSQAPRPPASPGRPEQHTVIHMGNPEPLTHAPRKVYDTRDDDRTPGLHGDCDDDKYRRRPALGWLARLLRSRAGSRKRPLTLLQRAGLLLLLGLLGFLALLALMSRLGRAAADSDPNLDPLMNPHIRVGPS [ZFPL1]”, for which, in series [1], the “solubility change mitosis (log2)” value is -0.0676. The “solubility in G1/S (log2)” value in series [2] amounted to 0.256. In series [3] (cell cycle stage: G1/S), the melting temperature worked out at 57.4 °C.
Regarding “MGLFGKTQEKPPKELVNEWSLKIRKEMRVVDRQIRDIQREEEKVKRSVKDAAKKGQKDVCIVLAKEMIRSRKAVSKLYASKAHMNSVLMGMKNQLAVLRVAGSLQKSTEVMKAMQSLVKIPEIQATMRELSKEMMKAGIIEEMLEDTFESMDDQEEMEEEAEMEIDRILFEITAGALGKAPSKVTDALPEPEPPGAMAASEDEEEEEEALEAMQSRLATLRS [CHMP3]”, the “solubility change mitosis (log2)” value in series [1] was -0.0644. The “solubility in G1/S (log2)” value in series [2] was 0.866. In addition, the figures for the melting temperature in series [3] (cell cycle stage: G1/S) and in series [3] (cell cycle stage: mitosis) were 51.4 °C and 51 °C, respectively.
The matching figures for “MGPPRHPQAGEIEAGGAGGGRRLQVEMSSQQFPRLGAPSTGLSQAPSQIANSGSAGLINPAATVNDESGRDSEVSAREHMSSSSSLQSREEKQEPVVVRPYPQVQMLSTHHAVASATPVAVTAPPAHLTPAVPLSFSEGLMKPPPKPTMPSRPIAPAPPSTLSLPPKVPGQVTVTMESSIPQASAIPVATISGQQGHPSNLHHIMTTNVQMSIIRSNAPGPPLHIGASHLPRGAAAAAVMSSSKVTTVLRPTSQLPNAATAQPAVQHIIHQPIQSRPPVTTSNAIPPAVVATVSATRAQSPVITTTAAHATDSALSRPTLSIQHPPSAAISIQRPAQSRDVTTRITLPSHPALGTPKQQLHTMAQKTIFSTGTPVAAATVAPILATNTIPSATTAGSVSHTQAPTSTIVTMTVPSHSSHATAVTTSNIPVAKVVPQQITHTSPRIQPDYPAERSSLIPISGHRASPNPVAMETRSDNRPSVPVQFQYFLPTYPPSAYPLAAHTYTPITSSVSTIRQYPVSAQAPNSAITAQTGVGVASTVHLNPMQLMTVDASHARHIQGIQPAPISTQGIQPAPIGTPGIQPAPLGTQGIHSATPINTQGLQPAPMGTQQPQPEGKTSAVVLADGATIVANPISNPFSAAPAATTVVQTHSQSASTNAPAQGSSPRPSILRKKPATDGAKPKSEIHVSMATPVTVSMETVSNQNNDQPTIAVPPTAQQPPPTIPTMIAAASPPSQPAVALSTIPGAVPITPPITTIAAAPPPSVTVGGSLSSVLGPPVPEIKVKEEVEPMDIMRPVSAVPPLATNTVSPSLALLANNLSMPTSDLPPGASPRKKPRKQQHVISTEEGDMMETNSTDDEKSTAKSLLVKAEKRKSPPKEYIDEEGVRYVPVRPRPPITLLRHYRNPWKAAYHHFQRYSDVRVKEEKKAMLQEIANQKGVSCRAQGWKVHLCAAQLLQLTNLEHDVYERLTNLQEGIIPKKKAATDDDLHRINELIQGNMQRCKLVMDQISEARDSMLKVLDHKDRVLKLLNKNGTVKKVSKLKRKEKV [SAP130]”: -0.0185, 0.147, 50.5 °C and 50 °C.
On to “MGSTESSEGRRVSFGVDEEERVRVLQGVRLSENVVNRMKEPSSPPPAPTSSTFGLQDGNLRAPHKESTLPRSGSSGGQQPSGMKEGVKRYEQEHAAIQDKLFQVAKREREAATKHSKASLPTGEGSISHEEQKSVRLARELESREAELRRRDTFYKEQLERIERKNAEMYKLSSEQFHEAASKMESTIKPRRVEPVCSGLQAQILHCYRDRPHEVLLCSDLVKAYQRCVSAAHKG [CHCHD6]”, for which the “solubility change mitosis (log2)” value in series [1] was found to be 0.232. In addition, the “solubility in G1/S (log2)” value in series [2] was 0.215. For the same sequence, the results for the melting temperature in series [3] (cell cycle stage: G1/S) and in series [3] (cell cycle stage: mitosis) were 54.7 °C and 53.2 °C, respectively.
As to “MHRAPSPTAEQPPGGGDSARRTLQPRLKPSARAMALPRTLGELQLYRVLQRANLLSYYETFIQQGGDDVQQLCEAGEEEFLEIMALVGMATKPLHVRRLQKALREWATNPGLFSQPVPAVPVSSIPLFKISETAGTRKGSMSNGHGSPGEKAGSARSFSPKSPLELGEKLSPLPGGPGAGDPRIWPGRSTPESDVGAGGEEEAGSPPFSPPAGGGVPEGTGAGGLAAGGTGGGPDRLEPEMVRMVVESVERIFRSFPRGDAGEVTSLLKLNKKLARSVGHIFEMDDNDSQKEEEIRKYSIIYGRFDSKRREGKQLSLHELTINEAAAQFCMRDNTLLLRRVELFSLSRQVARESTYLSSLKGSRLHPEELGGPPLKKLKQEVGEQSHPEIQQPPPGPESYVPPYRPSLEEDSASLSGESLDGHLQAVGSCPRLTPPPADLPLALPAHGLWSRHILQQTLMDEGLRLARLVSHDRVGRLSPCVPAKPPLAEFEEGLLDRCPAPGPHPALVEGRRSSVKVEAEASRQ [NAB2]”, in series [1], the “solubility change mitosis (log2)” value is -0.11. Moreover, the “solubility in G1/S (log2)” value in series [2] stood at 0.298. For the same sequence, the melting temperature in series [3] (cell cycle stage: mitosis) amounted to 48.9 °C.
On to “MHRGVGPAFRVVRKMAASGAEPQVLVQYLVLRKDLSQAPFSWPAGALVAQACHAATAALHTHRDHPHTAAYLQELGRMRKVVLEAPDETTLKELAETLQQKNIDHMLWLEQPENIATCIALRPYPKEEVGQYLKKFRLFK [PTRHD1]”, for which, in series [1], the “solubility change mitosis (log2)” value is 0.625. In addition, the “solubility in G1/S (log2)” value in series [2] was -0.278. The melting temperature in series [3] (cell cycle stage: G1/S) turned out to be 55.6 °C; in series [3] (cell cycle stage: mitosis), 52.6 °C.
The matching figures for “MISRHLQNNLMSVDPASSQAMELSDVTLIEGVGNEVMVVAGVVVLILALVLAWLSTYVADSGSNQLLGAIVSAGDTSVLHLGHVDHLVAGQGNPEPTELPHPSEGNDEKAEEAGEGRGDSTGEAGAGGGVEPSLEHLLDIQGLPKRQAGAGSSSPEAPLRSEDSTCLPPSPGLITVRLKFLNDTEELAVARPEDTVGALKSKYFPGQESQMKLIYQGRLLQDPARTLRSLNITDNCVIHCHRSPPGSAVPGPSASLAPSATEPPSLGVNVGSLMVPVFVVLLGVVWYFRINYRQFFTAPATVSLVGVTVFFSFLVFGMYGR [TMUB2]”: -0.108, 0.229, 55 °C and 54 °C.
